This passage reports Kd, fold decrease of binding against wild-type AnkB exZZU and fold stronger binding than AnkG ZZUD without the extension results from paper doi:10.1101/2020.03.04.976142.

Some targets named below: AnkB exZZU F968A (human); AnkB exZZU I964Q (human); AnkG exZZUD (rat) (UniProt O70511).
Common to all, as to test: ITC
For orientation: In ITC the heat of successive injections is recorded.

Test [1] has as its target AnkB ZU5N-ZU5C-UPA-DD tandem (ZZUD, aa 966-1535) (human).
Test [2] concerns the target AnkB exZZU (extension-ZU5N-ZU5C-UPA, aa 951-1443) (human).
Test [3] deals with AnkB exZZU R1029E (human).
In test [4] the target is AnkB exZZU T1324D (human).

The term Kd denotes the free concentration of one partner at which half of the binding sites on the other are occupied at equilibrium, for simple one-to-one binding. Low readings indicate a tighter complex, high ones a looser complex.

Chain of UniProt O70511 (O70511 whole entry): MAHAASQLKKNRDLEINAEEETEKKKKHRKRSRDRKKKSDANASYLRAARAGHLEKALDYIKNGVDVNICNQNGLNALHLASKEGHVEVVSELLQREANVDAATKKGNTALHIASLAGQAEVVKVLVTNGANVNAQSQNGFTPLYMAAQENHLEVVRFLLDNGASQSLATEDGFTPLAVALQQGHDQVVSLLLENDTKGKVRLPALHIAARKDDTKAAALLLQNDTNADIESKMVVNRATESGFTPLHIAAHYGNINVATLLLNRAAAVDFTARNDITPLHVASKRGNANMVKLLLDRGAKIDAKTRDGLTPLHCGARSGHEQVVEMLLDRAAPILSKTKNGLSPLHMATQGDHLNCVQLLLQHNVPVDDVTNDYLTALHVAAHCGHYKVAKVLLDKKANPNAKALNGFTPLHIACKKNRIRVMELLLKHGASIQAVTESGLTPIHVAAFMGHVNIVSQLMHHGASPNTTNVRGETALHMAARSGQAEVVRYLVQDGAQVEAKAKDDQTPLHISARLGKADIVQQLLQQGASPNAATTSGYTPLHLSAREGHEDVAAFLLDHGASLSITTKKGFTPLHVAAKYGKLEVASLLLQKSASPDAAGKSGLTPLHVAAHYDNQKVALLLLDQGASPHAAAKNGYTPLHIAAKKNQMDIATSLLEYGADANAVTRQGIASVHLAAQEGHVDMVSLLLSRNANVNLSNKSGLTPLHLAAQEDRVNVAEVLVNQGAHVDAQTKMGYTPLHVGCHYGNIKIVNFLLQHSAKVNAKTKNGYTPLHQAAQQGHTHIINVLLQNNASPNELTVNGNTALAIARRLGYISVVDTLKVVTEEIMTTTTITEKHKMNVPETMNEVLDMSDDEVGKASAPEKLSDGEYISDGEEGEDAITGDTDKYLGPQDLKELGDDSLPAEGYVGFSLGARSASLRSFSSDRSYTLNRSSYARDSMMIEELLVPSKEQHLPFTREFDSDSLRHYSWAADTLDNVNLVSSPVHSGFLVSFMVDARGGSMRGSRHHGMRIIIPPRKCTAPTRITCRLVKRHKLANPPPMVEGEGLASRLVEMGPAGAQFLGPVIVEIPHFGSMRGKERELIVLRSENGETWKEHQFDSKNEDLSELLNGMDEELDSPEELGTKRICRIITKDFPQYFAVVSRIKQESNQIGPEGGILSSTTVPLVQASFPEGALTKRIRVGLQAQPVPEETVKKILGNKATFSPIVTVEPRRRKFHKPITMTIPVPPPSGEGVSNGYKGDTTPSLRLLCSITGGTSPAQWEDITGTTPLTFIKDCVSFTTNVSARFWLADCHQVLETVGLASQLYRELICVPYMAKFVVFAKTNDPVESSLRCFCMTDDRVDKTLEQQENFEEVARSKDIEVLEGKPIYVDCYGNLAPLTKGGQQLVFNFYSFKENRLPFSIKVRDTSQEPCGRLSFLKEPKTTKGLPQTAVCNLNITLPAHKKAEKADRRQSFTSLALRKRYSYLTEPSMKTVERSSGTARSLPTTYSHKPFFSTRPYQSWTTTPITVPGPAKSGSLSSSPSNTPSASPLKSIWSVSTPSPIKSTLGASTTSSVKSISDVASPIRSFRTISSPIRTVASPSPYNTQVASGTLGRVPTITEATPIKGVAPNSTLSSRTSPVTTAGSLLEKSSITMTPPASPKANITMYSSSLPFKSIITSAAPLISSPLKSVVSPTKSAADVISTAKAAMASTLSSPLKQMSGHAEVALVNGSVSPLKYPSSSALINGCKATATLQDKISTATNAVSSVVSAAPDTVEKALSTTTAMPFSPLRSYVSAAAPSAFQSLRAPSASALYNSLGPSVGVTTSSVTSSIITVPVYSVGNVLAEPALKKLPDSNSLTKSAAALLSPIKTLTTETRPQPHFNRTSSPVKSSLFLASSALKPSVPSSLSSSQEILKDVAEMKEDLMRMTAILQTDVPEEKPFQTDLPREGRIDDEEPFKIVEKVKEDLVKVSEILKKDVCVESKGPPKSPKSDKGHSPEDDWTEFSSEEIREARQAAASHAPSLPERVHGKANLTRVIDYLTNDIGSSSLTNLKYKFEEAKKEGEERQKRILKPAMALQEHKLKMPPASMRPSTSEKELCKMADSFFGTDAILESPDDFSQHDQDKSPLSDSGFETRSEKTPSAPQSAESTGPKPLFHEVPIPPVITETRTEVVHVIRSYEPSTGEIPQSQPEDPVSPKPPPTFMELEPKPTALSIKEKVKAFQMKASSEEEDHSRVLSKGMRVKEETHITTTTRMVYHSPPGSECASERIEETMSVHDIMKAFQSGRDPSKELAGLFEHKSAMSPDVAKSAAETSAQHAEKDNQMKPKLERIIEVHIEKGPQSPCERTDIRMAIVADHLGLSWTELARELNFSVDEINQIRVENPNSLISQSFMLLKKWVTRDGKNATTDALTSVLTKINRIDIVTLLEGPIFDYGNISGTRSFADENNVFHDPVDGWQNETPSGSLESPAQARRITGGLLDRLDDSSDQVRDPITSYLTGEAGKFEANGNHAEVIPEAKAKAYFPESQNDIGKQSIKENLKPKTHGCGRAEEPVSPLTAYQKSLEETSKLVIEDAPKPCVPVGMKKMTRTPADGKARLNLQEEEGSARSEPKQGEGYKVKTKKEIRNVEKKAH

Regarding “β2-spectrin spectrin repeats 13-15 (R13-15) (domain or fragment)”, the Kd in test [1] amounted to 4.9 µM; in test [2] it was 200 nM. The values for the fold decrease of binding against wild-type AnkB exZZU (with AnkB exZZU F968A (human); with AnkB exZZU I964Q (human); in test [3]) were more than 10 fold, 4 fold and 5 fold, respectively.
“β4-spectrin spectrin repeats 13-15 (R13-15) (domain or fragment)” yielded a fold decrease of binding against wild-type AnkB exZZU in test [4] of 5 fold.
For “β2-spectrin R13-16 (from UniProt Q62261 1-2363) (domain or fragment)”, in the test with AnkG exZZUD (rat), the fold stronger binding than AnkG ZZUD without the extension was more than 10 fold.
